Measured values published in PMC7954978.

Target: GltPh-XL2 (cysteine-less GltPh with L152C and G351C) (UniProt O59010)
Experiment: cryo-EM structure

stoichiometry N: 3
Substance: GltPh-XL2 (cysteine-less GltPh with L152C and G351C) (from UniProt O59010 1-417) (natural protein)
